Paper PMC6393291 (Nucleic Acids Research, 2018)

Target: T1, MSL2-FLAG (D. melanogaster, UniProt P50534 1-773)
T1 sequence (looked up): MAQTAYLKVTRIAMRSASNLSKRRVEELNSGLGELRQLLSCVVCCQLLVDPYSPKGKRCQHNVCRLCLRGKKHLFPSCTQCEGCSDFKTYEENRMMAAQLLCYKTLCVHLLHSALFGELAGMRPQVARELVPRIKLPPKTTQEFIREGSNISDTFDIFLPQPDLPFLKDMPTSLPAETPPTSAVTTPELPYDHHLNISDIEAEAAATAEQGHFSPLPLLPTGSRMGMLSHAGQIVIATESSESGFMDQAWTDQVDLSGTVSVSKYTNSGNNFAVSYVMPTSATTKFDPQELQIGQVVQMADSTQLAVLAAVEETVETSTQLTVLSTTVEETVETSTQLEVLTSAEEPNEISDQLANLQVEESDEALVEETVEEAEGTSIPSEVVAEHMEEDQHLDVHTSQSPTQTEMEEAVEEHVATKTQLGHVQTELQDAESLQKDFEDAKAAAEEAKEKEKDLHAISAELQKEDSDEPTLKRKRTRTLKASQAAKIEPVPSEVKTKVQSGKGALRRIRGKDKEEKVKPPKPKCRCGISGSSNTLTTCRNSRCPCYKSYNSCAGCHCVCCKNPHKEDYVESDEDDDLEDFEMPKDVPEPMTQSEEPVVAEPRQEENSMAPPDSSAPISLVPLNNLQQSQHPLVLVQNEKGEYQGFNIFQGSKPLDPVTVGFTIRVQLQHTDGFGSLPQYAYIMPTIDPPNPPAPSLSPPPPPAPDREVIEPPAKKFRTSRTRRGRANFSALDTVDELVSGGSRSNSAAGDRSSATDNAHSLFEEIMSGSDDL
Assay: co-IP

B1: CLAMP-FLAG (natural protein, D. melanogaster, UniProt Q9V9N4 1-561, looked up)
chain: MEDLTKNIIFTNAINGQPATIQYQTADGTILKQPKIEGQKTEQQPTFYYTTNGNGGTVNLAQLATTDDNKTCYIAQPVGGYNYALVNGMPLNQGAALGIATVDAQGRIQIVNQNKPIAANTISNISFKCDVCSDMFPHLALLNAHKRMHTDGEQQQQQQHNAQAGGDSIAVVSAQGLVQAQNIIGNGQMGQIQIVSSDTLEPVQQSVMQQQQHESKASKCINCGSSMLQQSKRKGPKQVRCESCMQAEQTAQQQQQLFVAQDGQMAHPVQIISTTPQAQAQLQQIVAAQTGGTTPKREASSGSGHHPVKKRNSQQMTKCQKCNGSGVVLVGQHSHASHSGVGGSVKQSVTVKTENPSKPFSCNICGGLFSRYSSLWSHKKLHSGEKNYKCSICGLAFAKAVYLKNHARIHTGEKPYKCQTCGMQFSQSPHLKNHERTHSGERPYVCGVCDKGFARHATLWNHRRIHTGEKPYKCEICGSAFSQAAHLKNHAKVHSGEKPYKCEICSAAFADRFALKRHRGIHQKYGQTAPRQTSSDGMIVHKQEIPDMEDEAQQEVIIGGL
- binding result: binds
